T1: RXFP1 receptor (endogenous, on OVCAR5 cells) (UniProt Q9HBX9 1-757, limits assumed)
T1 sequence (looked up): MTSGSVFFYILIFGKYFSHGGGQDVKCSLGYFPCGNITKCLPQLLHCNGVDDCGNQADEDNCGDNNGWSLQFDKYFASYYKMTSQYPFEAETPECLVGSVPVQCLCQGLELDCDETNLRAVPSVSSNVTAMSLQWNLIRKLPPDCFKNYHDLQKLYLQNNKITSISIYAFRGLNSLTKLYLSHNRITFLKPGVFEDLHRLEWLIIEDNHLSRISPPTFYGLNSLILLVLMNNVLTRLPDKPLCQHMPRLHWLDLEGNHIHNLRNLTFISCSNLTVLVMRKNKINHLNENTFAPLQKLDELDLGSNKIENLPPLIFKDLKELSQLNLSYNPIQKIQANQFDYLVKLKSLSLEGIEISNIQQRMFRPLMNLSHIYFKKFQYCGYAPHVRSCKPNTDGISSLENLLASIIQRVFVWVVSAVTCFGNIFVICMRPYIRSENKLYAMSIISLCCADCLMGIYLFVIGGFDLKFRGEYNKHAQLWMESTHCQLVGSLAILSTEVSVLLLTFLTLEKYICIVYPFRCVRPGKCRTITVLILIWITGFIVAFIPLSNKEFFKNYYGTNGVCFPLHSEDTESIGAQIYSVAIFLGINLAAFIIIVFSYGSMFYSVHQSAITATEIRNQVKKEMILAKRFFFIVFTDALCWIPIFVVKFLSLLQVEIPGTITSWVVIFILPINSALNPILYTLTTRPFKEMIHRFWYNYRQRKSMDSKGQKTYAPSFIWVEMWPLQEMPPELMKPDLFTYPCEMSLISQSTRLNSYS

B1: peptide of SEQ ID NO: 8 (peptide)
peptide: Ac-LEGREKVRAK(Ac)I[Aib][Aib]EGK([AEEA-AEEA-AEEA-AEEA-γGlu-γGlu-γGlu-Palmitoyl])STFS[αMeK]RAK(Ac)-NH2
SMILES: CCCCCCCCCCCCCCCC(=O)N[C@@H](CCC(=O)N[C@@H](CCC(=O)N[C@@H](CCC(=O)NCCOCCOCC(=O)NCCOCCOCC(=O)NCCOCCOCC(=O)NCCOCCOCC(=O)NCCCC[C@H](NC(=O)CNC(=O)[C@H](CCC(=O)O)NC(=O)C(C)(C)NC(=O)C(C)(C)NC(=O)[C@@H](NC(=O)[C@H](CCCCNC(C)=O)NC(=O)[C@H](C)NC(=O)[C@H](CCCNC(=N)N)NC(=O)[C@@H](NC(=O)[C@H](CCCCN)NC(=O)[C@H](CCC(=O)O)NC(=O)[C@H](CCCNC(=N)N)NC(=O)CNC(=O)[C@H](CCC(=O)O)NC(=O)[C@H](CC(C)C)NC(C)=O)C(C)C)[C@@H](C)CC)C(=O)N[C@@H](CO)C(=O)N[C@H](C(=O)N[C@@H](Cc1ccccc1)C(=O)N[C@@H](CO)C(=O)N[C@@](C)(CCCCN)C(=O)N[C@@H](CCCNC(=N)N)C(=O)N[C@@H](C)C(=O)N[C@@H](CCCCNC(C)=O)C(N)=O)[C@@H](C)O)C(=O)O)C(=O)O)C(=O)O

Starred links: 1 amine or outer side, 2 acyl side, 3 side chain; linkers in the order of their positions; H or OH if unused. Non-standard residues stand in square brackets, D forms with d. Groups on a side chain read outwards from the residue. *: point of attachment. TTDS = 4-[3-[2-[2-(3-aminopropoxy)ethoxy]ethoxy]propylamino]-4-oxo-butanoyl; Trp(5-Cl) = N[C@@H](Cc1c[nH]c2ccc(Cl)cc12)C(=O)O; γGlu = O=C(O)[C@H](CCC(=O)[*:2])N[*:1]; Stearoyl = CCCCCCCCCCCCCCCCCC(=O)*; Palmitoyl = CCCCCCCCCCCCCCCC(=O)*; αMeK = C[C@](N)(CCCCN)C(=O)O; AEEA = NCCOCCOCC(=O)O; Aib = CC(C)(N)C(=O)O

The source of these data is patent publication US20190233494A1 (Sanofi, published 2019).

The experiment concerns the target T1, RXFP1 receptor (endogenous, on OVCAR5 …). Briefly: cell-based or functional assay.
As to Ac-LEGREKVRAK(Ac)I[Aib][Aib]EGK([TTDS-TTDS-TTDS-γGlu-γGlu-γGlu-Palmitoyl])SKFS[Aib]RKK(Ac)-NH2 [peptide of SEQ ID NO: 79], the “EC50 (nM), OVCAR 5 cells (cAMP)” value was found to be 0.45 nM and the “EMax, OVCAR 5 cells (cAMP)” value stood at 95%.
As for Ac-K(Ac)EGREKVRAK(Ac)I[Aib][Aib]EGK([TTDS-TTDS-TTDS-γGlu-γGlu-γGlu-Palmitoyl])STFS[αMeK]RAK(Ac)-NH2 [peptide of SEQ ID NO: 81], the “EC50 (nM), OVCAR 5 cells (cAMP)” value was 0.16 nM and the “EMax, OVCAR 5 cells (cAMP)” value is 98%.
Regarding Ac-[Aib]EGREKVRAK(Ac)I[Aib]IEGK([TTDS-TTDS-TTDS-γGlu-γGlu-γGlu-Palmitoyl])STFS[αMeK]RAK(Ac)-NH2 [peptide of SEQ ID NO: 86], the “EC50 (nM), OVCAR 5 cells (cAMP)” value was 0.3 nM and the “EMax, OVCAR 5 cells (cAMP)” value came out at 95%.
Consider Ac-LEGRERVRAK(Ac)I[Aib][Aib]EGK([TTDS-TTDS-TTDS-TTDS-γGlu-γGlu-γGlu-Palmitoyl])STFS[Aib]RRK(Ac)-NH2 [peptide of SEQ ID NO: 77], for which the “EC50 (nM), OVCAR 5 cells (cAMP)” value came to 0.11 nM and the “EMax, OVCAR 5 cells (cAMP)” value was 98%.
The matching figures for Ac-LEGRERVR[Aib]K(Ac)I[Aib][Aib]EGK([TTDS-TTDS-TTDS-γGlu-γGlu-γGlu-Palmitoyl])STWS[Aib]RRK(Ac)-NH2 [peptide of SEQ ID NO: 85]: 0.3 nM and 92%.
For Ac-LEGREKVRAK(Ac)I[Aib]IEGK([TTDS-TTDS-TTDS-γGlu-γGlu-γGlu-Palmitoyl])STWS[Aib]RKK(Ac)-NH2 [peptide of SEQ ID NO: 70], the “EC50 (nM), OVCAR 5 cells (cAMP)” value is 1.34 nM and the “EMax, OVCAR 5 cells (cAMP)” value turned out to be 94%.
On to B1, for which the “EC50 (nM), OVCAR 5 cells (cAMP)” value amounted to 1.86 nM and the “EMax, OVCAR 5 cells (cAMP)” value worked out at 92%.
The matching figures for Ac-LEGREKVRAK(Ac)I[Aib]IEGK([TTDS-TTDS-TTDS-γGlu-γGlu-γGlu-Palmitoyl])STFS[αMeK]RAK(Ac)-NH2 [peptide of SEQ ID NO: 84]: 0.1 nM and 95%.
For Ac-LEGREKVRAK(Ac)I[Aib][Aib]EGK([TTDS-TTDS-TTDS-γGlu-γGlu-γGlu-Palmitoyl])STWK(Ac)[Aib]RAK(Ac)-NH2 [peptide of SEQ ID NO: 66] the same measures were 6.31 nM and 93%.
The matching figures for Ac-LEGREKVRAK(Ac)I[Aib][Aib]EGK([TTDS-TTDS-TTDS-γGlu-γGlu-γGlu-Palmitoyl])SKWS[Aib]RAK-NH2 [peptide of SEQ ID NO: 73]: 0.2 nM and 95%.
Take Ac-LEGRERVRAK(Ac)I[Aib][Aib]EGK([TTDS-TTDS-TTDS-γGlu-γGlu-γGlu-Palmitoyl])STWS[Aib]RKK(Ac)-NH2 [peptide of SEQ ID NO: 67]: the “EC50 (nM), OVCAR 5 cells (cAMP)” value was 0.48 nM and the “EMax, OVCAR 5 cells (cAMP)” value is 95%.
The matching figures for Ac-LEGREKVRAK(Ac)I[Aib][Aib]EGK([TTDS-TTDS-TTDS-γGlu-γGlu-γGlu-Palmitoyl])STWS[Aib]RAK-NH2 [peptide of SEQ ID NO: 71]: 0.36 nM and 95%.
For Ac-LEGREKVRAK(Ac)I[Aib][Aib]EGK([TTDS-TTDS-TTDS-γGlu-γGlu-γGlu-Palmitoyl])STFSRRAK(Ac)-NH2 [peptide of SEQ ID NO: 87] the same measures were 0.1 nM and 96%.
The matching figures for Ac-LEGRERVRAK(Ac)I[Aib][Aib]EGK([TTDS-TTDS-TTDS-γGlu-γGlu-γGlu-Palmitoyl])STFS[Aib]RRK(Ac)-NH2 [peptide of SEQ ID NO: 76]: 0.18 nM and 96%.
Ac-LEGREKVRAK(Ac)I[Aib][Aib]EGK([TTDS-TTDS-TTDS-γGlu-γGlu-γGlu-Palmitoyl])STF[Aib]RRAK(Ac)-NH2 [peptide of SEQ ID NO: 72]: the “EC50 (nM), OVCAR 5 cells (cAMP)” value was determined as 0.56 nM and the “EMax, OVCAR 5 cells (cAMP)” value is 91%.
As to Ac-LEGREKVRAK(Ac)I[Aib][Aib]EGK([TTDS-TTDS-TTDS-TTDS-γGlu-γGlu-γGlu-Palmitoyl])STFS[αMeK]RAK(Ac)-NH2 [peptide of SEQ ID NO: 78], the “EC50 (nM), OVCAR 5 cells (cAMP)” value came out at 0.18 nM and the “EMax, OVCAR 5 cells (cAMP)” value came out at 99%.
For Ac-LEGREKVR[Aib]K(Ac)I[Aib][Aib]EGK([TTDS-TTDS-TTDS-γGlu-γGlu-γGlu-Palmitoyl])STWS[Aib]RAK(Ac)-NH2 [peptide of SEQ ID NO: 82] the same measures were 0.54 nM and 95%.
For Ac-LEGRERVRAK(Ac)I[Aib][Aib]EGK([TTDS-TTDS-TTDS-TTDS-γGlu-γGlu-γGlu-Palmitoyl])STWS[Aib]RRK(Ac)-NH2 [peptide of SEQ ID NO: 75] the same measures were 0.19 nM and 97%.
The matching figures for Ac-LEGREKVRAK(Ac)I[Aib]IEGK([TTDS-TTDS-TTDS-TTDS-γGlu-γGlu-γGlu-Palmitoyl])STWS[Aib]RKK(Ac)-NH2 [peptide of SEQ ID NO: 74]: 0.54 nM and 94%.
As for Ac-LEGREKVRAK(Ac)I[Aib][Aib]EGK([TTDS-TTDS-TTDS-γGlu-γGlu-γGlu-Palmitoyl])STWS[Aib]RK(Ac)R-NH2 [peptide of SEQ ID NO: 69], the “EC50 (nM), OVCAR 5 cells (cAMP)” value was determined as 0.78 nM and the “EMax, OVCAR 5 cells (cAMP)” value was 97%.
The matching figures for Ac-LEGREKVRAK(Ac)I[Aib][Aib]EGK([TTDS-TTDS-TTDS-γGlu-γGlu-γGlu-Stearoyl])STFS[αMeK]RAK(Ac)-NH2 [peptide of SEQ ID NO: 7]: 0.07 nM and 95%.
For Ac-LEGREKVRK(Ac)QI[Aib][Aib]EGK([TTDS-TTDS-TTDS-γGlu-γGlu-γGlu-Palmitoyl])STWS[Aib]RKK(Ac)-NH2 [peptide of SEQ ID NO: 65] the same measures were 1.19 nM and 95%.
The matching figures for Ac-LEGREKVRAK(Ac)I[Aib][Aib]EGK([TTDS-TTDS-TTDS-γGlu-γGlu-γGlu-Palmitoyl])SKWS[Aib]RKK(Ac)-NH2 [peptide of SEQ ID NO: 83]: 0.25 nM and 94%.
For the molecule Ac-LEGREKVRAK(Ac)I[Aib][Aib]EGK([TTDS-TTDS-TTDS-γGlu-γGlu-γGlu-Palmitoyl])STWS[Aib]RK(Ac)K-NH2 [peptide of SEQ ID NO: 68], the “EC50 (nM), OVCAR 5 cells (cAMP)” value was found to be 0.88 nM and the “EMax, OVCAR 5 cells (cAMP)” value was 98%.
The matching figures for Ac-LEGRERVRAK(Ac)I[Aib][Aib]EGK([TTDS-TTDS-TTDS-γGlu-γGlu-γGlu-Palmitoyl])ST[Trp(5-Cl)]S[Aib]RRK(Ac)-NH2 [peptide of SEQ ID NO: 80]: 0.63 nM and 93%.
